For the assay, the target named is recombinant human glandular kallikrein 2 (hK2) (human) (UniProt P20151). Kind of assay: cell-based or functional assay.

B1: PSTI (protein, UniProt P00995 24-79, looked up)
chain: DSLGREAKCYNELNGCTKIYDPVCGTDGNTYPNECVLCFENRKRQTSILIQKSGPC
Turning to B1, the hK2 Activity (%) of inhibitor-free control, inhibitor at 0.08 µM came out at 100% and the hK2 Activity (%) of inhibitor-free control, inhibitor at 4 µM stood at 89%.

B2: α1-antichymotrypsin (ACT) (protein, human, UniProt P01011 24-423, looked up)
chain: HPNSPLDEENLTQENQDRGTHVDLGLASANVDFAFSLYKQLVLKAPDKNVIFSPLSISTALAFLSLGAHNTTLTEILKGLKFNLTETSEAEIHQSFQHLLRTLNQSSDELQLSMGNAMFVKEQLSLLDRFTEDAKRLYGSEAFATDFQDSAAAKKLINDYVKNGTRGKITDLIKDLDSQTMMVLVNYIFFKAKWEMPFDPQDTHQSRFYLSKKKWVMVPMMSLHHLTIPYFRDEELSCTVVELKYTGNASALFILPDQDKMEEVEAMLLPETLKRWRDSLEFREIGELYLPKFSISRDYNLNDILLQLGIEEAFTSKADLSGITGARNLAVSQVVHKAVLDVFEEGTEASAATAVKITLLSALVETRTIVRFNRPFLMIIVPTDTQNIFFMSKVTNPKQA
Turning to B2, the hK2 Activity (%) of inhibitor-free control, inhibitor at 0.8 µM came to 100%.

B3: protein C inhibitor (PCI) (protein, UniProt P05154 20-406, looked up)
chain: HRHHPREMKKRVEDLHVGATVAPSSRRDFTFDLYRALASAAPSQSIFFSPVSISMSLAMLSLGAGSSTKMQILEGLGLNLQKSSEKELHRGFQQLLQELNQPRDGFQLSLGNALFTDLVVDLQDTFVSAMKTLYLADTFPTNFRDSAGAMKQINDYVAKQTKGKIVDLLKNLDSNAVVIMVNYIFFKAKWETSFNHKGTQEQDFYVTSETVVRVPMMSREDQYHYLLDRNLSCRVVGVPYQGNATALFILPSEGKMQQVENGLSEKTLRKWLKMFKKRQLELYLPKFSIEGSYQLEKVLPSLGISNVFTSHADLSGISNHSNIQVSEMVHKAVVEVDESGTRAAAATGTIFTFRSARLNSQRLVFNRPFLMFIVDNNILFLGKVNRP
In the case of B3, the hK2 Activity (%) of inhibitor-free control, inhibitor at 0.016 µM stood at 50% and the hK2 Activity (%) of inhibitor-free control, inhibitor at 0.08 µM worked out at 0%.
